# Test results from the DeepSol protein solubility set.
# Assay: soluble on expression in E. coli; label from the status in PepcDB or PDB records
row,Sequence,soluble on expression in E. coli
1,MSEIPTEVPVKTRKRTYDLKFKLHAINYALEHKNISKAAKDLNVNRQNIQQWIAQKAEIEKQLEDNGSTATKRLSGGGRPLKYDDVDKELIKWVHDQRKEKQRVTRRIIGETAKKISQNSDFKASRGWLDKFMCRHNLSTRRARTEPGDLMQTLVDILLRQTSSDDGEEDPMISFIKSCIPSGEDPLEGEDQAASSSVQVPKVLAEENGHESDSDQSIVDVND,not soluble
2,MSEITIGVLSLQGDFEPHINHFIKLQIPSLNIIQVRNVHDLGLCDGLVIPGGESTTVRRCCAYENDTLYNALVHFIHVLKKPIWGTCAGCILLSKNVENIKLYSNFGNKFSFGGLDITICRNFYGSQNDSFICSLNIISDSSAFKKDLTAACIRAPYIREILSDEVKVLATFSHESYGPNIIAAVEQNNCLGTVFHPELLPHTAFQQYFYEKVKNYKYSLEHHHHHH,soluble
3,MSEKYIVTWDMLQIHARKLASRLMPSEQWKGIIAVSRGGLVPGALLARELGIRHVDTVAISSYDHDNQRELKVLKRAEGDGEGFIVIDDLVDTGGTAVAIREMYPKAHFVTIFAKPAGRPLVDDYVVDIPQDTWIEQPWDMGVVFVPPISGR,soluble
4,MSELFKKLMDQIEMPLEIKNSSVFSSADIIEVKVHSLSRLWEFHFSFPELLPIEVYRELQTRLVNSFEKADIKATFDIRAETIDFSDDLLQDYYQQAFCEPLCNSASFKSSFSQLKVHYNGSQMIISAPQFVNNNHFRQNHLPRLEQQFSLFGF,not soluble
5,MSELVVIREMQEKDILALDTQFVQQGWPSRQEILMNYLEEQLVKQRTVFVAEKKATLLGYVTLLPLAKEGPFKNLYPEIADFNVFLPFQKQGVGRLLLNRAENVAKSYADTVSLGVGLHPGYGAAQRLYIKQGYVPDGSGVWFQNKQLKPNERCVNDDELVLYLSKKL,not soluble
6,MSEMGKYKPPAERKYGKGVQSCQRCGSKDSVIQKYGIYLCRQCFREVAYELGFRKYW,soluble
7,MSEMSAIYRVKQYILNLIKDGELTNGSKLPSNLSIARALNVKTDDVYDGIDELITEQVVTDNFEEGTSVKVKPPFYYPLNKIISIGTMIKEAGYEAGTEYLNLDEQPATILDAEHLGIETKEPITIIERLRTANHKPVVYCLDKIAKTYLTCTDYQQSSGSMLEAIKASTNHQIMHAEMDLEAISYEPHISEVLNASPHEGLMLLKVVHYDEKHQPILYSLNYIKSSLVKFTITKSE,not soluble
8,MSEPFSVPVTVRGYETDTQGHLNQSVYLNYAEHARWSLLQAAGIRQADLVARGVGPVALETTIRFQRELLAGDEVTVTCAFEWGTGKTFRIRQLVTKADGTVAAEIEAVGGLMDLGERRLVPDPRQRFKELAARPELFGLLEHHHHHH,not soluble
9,MSEPPKKPFACAICRNKSSGCHYGVLSCDACKMFFKRTYLMEKYYTCRRQESCYNMDGGNRKCKACRFKKCLEVGMNPELFSRSESQIISTNIPTQLITQDHRNAEFLQKLKILDKTRHEVFKIIDTYENPSFVDLVRQESRLSCYLRPKNISWENTERKLKPWGSLGMLLAVETIKSLDFYPKLLLSDRILLLETVTLKSFHLSVAFDSFSQKKEKILAPDGSEMFPDSLNKMDFCKDLIMRLLTTPVKPLIAMKLTETEYLLLGIIVICNPEIDGLSPSGKAIITAFLQKTINVLLQFCLINNPRSAPSRLLEIISINQILNRQFHASYKLFDALRKQWDPTMSFQKVLVESCKTRGYDLS,not soluble
10,MSEQPASLDPVSKQIIEQLQEDGRRSYSAIGKVVGLSEAAVRQRVQKLIDTGVTQIVAVTDPVQVGFSRQAMVGIRCSGDVTEIAARLADVDAIDYVVLTAGAYDILAEIVCENDDHLLAVLNKEIRTIPGVLGTETMVYLKLVKQQYDWGTR,not soluble
11,MSEQYVYQHGTLGGLMESLMAGTAEIGTLLTQGDFGIGTLEGSNGEIILLDGTLYHANQTGEITILEGEELTPYAAVTRFQEDGAFPVSTETDENIKAQILEKISPNFFAAIKISGLFAKMHVRVAPKQEKPYPPFVEAARNQPEFTAENIQGTVVGFFTPKLFHGASAAGFHLHFISEDHQFGGHILDFGIKQGTVSWMETAELRQHFPVHDADYRNKEIDIAKALSAIEEAE,not soluble
12,MSESCNSLTVVFTDSPKIDDHLFAKAIRWADQNPDDTIFWARRKALERIPEIDVEFSMKAGALRRIRFGYSSKKLLQGCIDIALKASIGSEVAAIFCSMSIPQDCPELGCLLAALANFCNVDDGRAVVVIDLRDDNDDEKQEGVEESDPFENANFLEEEIVENPKELSNEPRETQTQEEFLEKLKRVASIYTKNVLLFDGNEEKFSNCF,not soluble
